Molecular target: bovine pancreatic ribonuclease A (bovine) (UniProt P61823)
Test: SEC; size of the SA-2 peak from stored N-swapped oligomers, estimated from its elution volume against the calibration curves of the Superdex columns; estimate only

stoichiometry N (RNase A units): 180
Substance: bovine pancreatic ribonuclease A (from UniProt P61823 27-150) (enzyme)

Source: publication PMC9569824
